Positions count from the first letter of the chain named.
T1: peptide on HLA-A*02:01 (human)
T1 peptide: SLLMWITQC

T2: PRAME peptide on HLA-A*02:01 (human)
T2 peptide: SLLQHLIGL

T3: PRAME peptide on HLA-A*02:01 (human)
T3 peptide: RLDQLLRHV

B1: PN46909 (TCR, V domains shown)
V domain 1: AQTVTQSQPEMSVQEAETVTLSCTYDTSENNYYLFWYKQPPSRQMILVIRQEAYKQQNATENRFSVNFQKAAKSFSLKISDSQLGDTAMYFCAFDYGQNFVFGPGTRLSVLP
V domain 2: NAGVTQTPKFRILKIGQSMTLQCAQDMNHNYMYWYRQDPGMGLKLIYYSVGAGITDKGEVPNGYNVSRSTTEYFPLRLELAAPSQTSVYFCASSYGGGQTEAFFGQGTRLTVV
notes: stained with anti-mouse TCR constant region antibody H57-597) and full-length chains were expressed on CHO cells
B2: PN46883 (TCR, V domains shown)
V domain 1: AQKVTQAQTEISVVEKEDVTLDCVYETRDTTYYLFWYKQPPSGELVFLIRRNSFDEQNEISGRYSWNFQKSTSSFNFTITASQVVDSAVYFCALSVSSYNTDKLIFGTGTRLQVFP
V domain 2: NAGVMQNPRHLVRRRGQEARLRCSPMKGHSHVYWYRQLPEEGLKFMVYLQKENIIDESGMPKERFSAEFPKEGPSILRIQQVVRGDSAAYFCASSHRDDTEAFFGQGTRLTVV
notes: as for B1
B3: PN46857 (TCR, V domains shown)
V domain 1: AQKVTQATREISVVEKEDVTLDCVYETRDTTYYLFWYKQPPSGELVFLIRRNSFDEQNEISGRYSWNFQKSTSSFNFTITASQVVDSAVYFCALSEGYGNKLVFGAGTILRVKS
V domain 2: B2 V domain 2
notes: as for B1
B4: PN46880 (TCR, V domains shown)
V domain 1: AQRVTQPEKLLSVFKGAPVELKCNYSYSGSPELFWYVQYSRQRLQLLLRHISRESIKGFTADLNKGETSFHLKKPFAQEEDSAMYYCALSGASGGSYIPTFGRGTSLIVHP
V domain 2: B2 V domain 2
notes: as for B1
B5: PN46871 (TCR, V domains shown)
V domain 1: KQEVTQIPAALSVPEGENLVLNCSFTDSAIYNLQWFRQDPGKGLTSLLLIQSSQREQTSGRLNASLDKSSGRSTLYIAASQPGDSATYLCAVEGTTDSWGKFQFGAGTQVVVTP
V domain 2: AAGVIQSPRHLIKEKRETATLKCYPIPRHDTVYWYQQGPGQDPQFLISFYEKMQSDKGSIPDRFSAQQFSDYHSELNMSSLELGDSALYFCASSSQGQPQHFGDGTRLSIL
notes: as for B1
B6: PN46853 (TCR, V domains shown)
V domain 1: ILNVEQSPQSLHVQEGDSTNFTCSFPSSNFYALHWYRWETAKSPEALFVMTLNGDEKKKGRISATLNTKEGYSYLYIKGSQPEDSATYLCACGGSGNTGKLIFGQGTTLQVKP
V domain 2: B5 V domain 2
notes: as for B1
B7: PN46731 (TCR, V domains shown)
V domain 1: GENVEQHPSTLSVQEGDSAVIKCTYSDSASNYFPWYKQELGKRPQLIIDIRSNVGEKKDQRIAVTLNKTAKHFSLHITETQPEDSAVYFCAAWNYGQNFVFGPGTRLSVLP
V domain 2: B5 V domain 2 with S95L, Q96E, Q98S, P99E, Q100A, H101F, D104Q, S109T, I110V, L111V
notes: as for B1
B8: PN46777 (TCR, V domains shown)
V domain 1: AQTVTQSQPEMSVQEAETVTLSCTYDTSENNYYLFWYKQPPSRQMILVIRQEAYKQQNATENRFSVNFQKAAKSFSLKISDSQLGDTAMYFCALMEYGNKLVFGAGTILRVKS
V domain 2: DAGITQSPRYKITETGRQVTLMCHQTWSHSYMFWYRQDLGHGLRLIYYSAAADITDKGEVPDGYVVSRSKTENFPLTLESATRSQTSVYFCASSDGTGYYGYTFGSGTRLTVV
notes: as for B1
B9: PN46797 (TCR, V domains shown)
V domain 1: B8 V domain 1 with G98E
V domain 2: B8 V domain 2
notes: as for B1
B10: PN46738 (TCR, V domains shown)
V domain 1: AQTVTQSQPEMSVQEAETVTLSCTYDTSENNYYLFWYKQPPSRQMILVIRQEAYKQQNATENRFSVNFQKAAKSFSLKISDSQLGDTAMYFCAFGMYSGGGADGLTFGKGTHLIIQP
V domain 2: B8 V domain 2
notes: as for B1
B11: PN42815 (TCR, V domains shown)
V domain 1: GESVGLHLPTLSVQEGDNSIINCAYSNSASDYFIWYKQESGKGPQFIIDIRSNMDKRQGQRVTVLLNKTVKHLSLQIAATQPGDSAVYFCAENNYGQNFVFGPGTRLSVLP
V domain 2: EAQVTQNPRYLITVTGKKLTVTCSQNMNHEYMSWYRQDPGLGLRQIYYSMNVEVTDKGDVPEGYKVSRKEKRNFPLILESPSPNQTSLYFCASSLWDSSPLHFGNGTRLTVT
notes: the summary and claims print the pair as 893/805
B12: PN42826 (TCR, V domains shown)
V domain 1: DQQVKQNSPSLSVQEGRISILNCDYTNSMFDYFLWYKKYPAEGPTFLISISSIKDKNEDGRFTVFLNKSAKHLSLHIVPSQPGDSAVYFCAASAGSARQLTFGSGTQLTVLP
V domain 2: B11 V domain 2 with W96Y, D97T, S98H, S99T, P100E, L101A, H102F, N105Q, T112V
B13: PN42895 (TCR, V domains shown)
V domain 1: B12 V domain 1 with N7S
V domain 2: B11 V domain 2 with D97S, S98N, S99T, P100E, L101A, H102F, N105Q, T112V
B14: PN42833 (TCR, V domains shown)
V domain 1: DAKTTQPPSMDCAEGRAANLPCNHSTISGNEYVYWYRQIHSQGPQYIIHGLKNNETNEMASLIITEDRKSSTLILPHATLRDTAVYYCIVRDTTSGTYKYIFGTGTRLKVLA
V domain 2: EAQVTQNPRYLITVTGKKLTVTCSQNMNHEYMSWYRQDPGLGLRQIYYSMNVEVTDKGDVPEGYKVSRKEKRNFPLILESPSPNQTSLYFCASSLSSTGFSPLHFGNGTRLTVT
B15: PN42441 (TCR, V domains shown)
V domain 1: DAKTTQPNSMESNEEEPVHLPCNHSTISGTDYIHWYRQLPSQGPEYVIHGLTSNVNNRMASLAIAEDRKSSTLILHRATLRDAAVYYCIRRPGNQFYFGTGTSLTVIP
V domain 2: B11 V domain 2 with D97T, S98G, P100E, L101A, H102F, N105Q, T112V
B16: PN42845 (TCR, V domains shown)
V domain 1: TQLLEQSPQFLSIQEGENLTVYCNSSSVFSSLQWYRQEPGEGPVLLVTVVTGGEVKKLKRLTFQFGDARKDSSLHITAAQPGDTGLYLCAGIRSNDYKLSFGAGTTVTVRA
V domain 2: EAQVTQNPRYLITVTGKKLTVTCSQNMNHEYMSWYRQDPGLGLRQIYYSMNVEVTDKGDVPEGYKVSRKEKRNFPLILESPSPNQTSLYFCASSSWTAHTEAFFGQGTRLTVV
B17: PN42870 (TCR, V domains shown)
V domain 1: TQLLEQSPQFLSIQEGENLTVYCNSSSVFSSLQWYRQEPGEGPVLLVTVVTGGEVKKLKRLTFQFGDARKDSSLHITAAQPGDTGLYLCAENSGGGADGLTFGKGTHLIIQP
V domain 2: DAGVTQSPTHLIKTRGQQVTLRCSPKSGHDTVSWYQQALGQGPQFIFQYYEEEERQRGNFPDRFSGHQFPNYSSELNVNALLLGDSALYLCASSFTDYGYTFGSGTRLTVV
B18: PN42450 (TCR, V domains shown)
V domain 1: AQRVTQPEKLLSVFKGAPVELKCNYSYSGSPELFWYVQYSRQRLQLLLRHISRESIKGFTADLNKGETSFHLKKPFAQEEDSAMYYCALGNTDKLIFGTGTRLQVFP
V domain 2: DVKVTQSSRYLVKRTGEKVFLECVQDMDHENMFWYRQDPGLGLRLIYFSYDVKMKEKGDIPEGYSVSREKKERFSLILESASTNQTSMYLCASSSPRTGWYGYTFGSGTRLTVV
B19: PN42558 (TCR, V domains shown)
V domain 1: GIQVEQSPPDLILQEGANSTLRCNFSDSVNNLQWFHQNPWGQLINLFYIPSGTKQNGRLSATTVATERYSLLYISSSQTTDSGVYFCVLGGGSQGNLIFGKGTKLSVKP
V domain 2: B17 V domain 2

These binders were tested against T4, soluble HLA-A2:PRAME (312-320) tetramer (human) (assay: flow cytometry, soluble pMHC tetramer on CHO cells expressing the TCR).
T4 construct: Commercial tetramer (MBL International); construct limits, biotin tag and streptavidin/fluorophore not described; also called PRAME/HLA tetramer reagent
With B1 the “Cell Frequency ≥1000 MFI, ≥1% (% tetramer positive cells in the Ag+ gate)” value was 52.6%. B2 was tested, and the “Cell Frequency ≥1000 MFI, ≥1% (% tetramer positive cells in the Ag+ gate)” value was 64.7%. For B3, the “Cell Frequency ≥1000 MFI, ≥1% (% tetramer positive cells in the Ag+ gate)” value was 53.9%. For B4, the “Cell Frequency ≥1000 MFI, ≥1% (% tetramer positive cells in the Ag+ gate)” value was 31.9%. In the case of B5, the “Cell Frequency ≥1000 MFI, ≥1% (% tetramer positive cells in the Ag+ gate)” value is reported as 44.7%. B6 was tested, and the “Cell Frequency ≥1000 MFI, ≥1% (% tetramer positive cells in the Ag+ gate)” value was 35.4%. For B7, the “Cell Frequency ≥1000 MFI, ≥1% (% tetramer positive cells in the Ag+ gate)” value was 15.7%. With B8 the “Cell Frequency ≥1000 MFI, ≥1% (% tetramer positive cells in the Ag+ gate)” value was 98.9%. With B9 the “Cell Frequency ≥1000 MFI, ≥1% (% tetramer positive cells in the Ag+ gate)” value was 57.3%. For B10, the “Cell Frequency ≥1000 MFI, ≥1% (% tetramer positive cells in the Ag+ gate)” value was 23%.

Biological target: T1, peptide on HLA-A*02:01
Assay: activation reporter or marker
B11: no recognition. B12: no recognition. B13: no recognition. B14: no recognition. B15: no recognition. B16: no recognition. B17: no recognition. B18: no recognition. B19: no recognition.

What follows are binders tested against T5, soluble HLA:A2:PRAME (425-433) tetramer (human) (assay: flow cytometry, soluble pMHC tetramer on CHO cells expressing the TCR;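 note: CHO cells transfected with vectors encoding full-length paired TCR alpha and beta chains, stained with PRAME/HLA tetramer and read by flow cytometry, each value reflects one listed TCR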).
T5 construct: Commercial tetramer (MBL International); construct limits, biotin tag and streptavidin/fluorophore not described; also called PRAME/HLA tetramer reagent; PRAME (425-433)/HLA-A2
With B11 the “Cell Frequency ≥1000 MFI, ≥1% (% tetramer positive cells in the Ag+ gate)” value was 4.35%. For B12, the “Cell Frequency ≥1000 MFI, ≥1% (% tetramer positive cells in the Ag+ gate)” value was 9.26%. B13 was tested, and the “Cell Frequency ≥1000 MFI, ≥1% (% tetramer positive cells in the Ag+ gate)” value was 4.09%. For B14, the “Cell Frequency ≥1000 MFI, ≥1% (% tetramer positive cells in the Ag+ gate)” value was 6.86%. B15 was tested, and the “Cell Frequency ≥1000 MFI, ≥1% (% tetramer positive cells in the Ag+ gate)” value was 15.5%. For B16, the “Cell Frequency ≥1000 MFI, ≥1% (% tetramer positive cells in the Ag+ gate)” value was 10.5%. With B17 the “Cell Frequency ≥1000 MFI, ≥1% (% tetramer positive cells in the Ag+ gate)” value was 7.27%. B18 was tested, and the “Cell Frequency ≥1000 MFI, ≥1% (% tetramer positive cells in the Ag+ gate)” value was 62.2%. In the case of B19, the “Cell Frequency ≥1000 MFI, ≥1% (% tetramer positive cells in the Ag+ gate)” value is reported as 85.7%.

Biological target: T2, PRAME peptide on HLA-A*02:01
Assay: multimer staining
B11: recognises. B12: recognises. B13: recognises. B14: recognises. B15: recognises. B16: recognises. B17: recognises. B18: recognises. B19: recognises.

Biological target: T3, PRAME peptide on HLA-A*02:01
Assay: multimer staining
B1: recognises. B2: recognises. B3: recognises. B4: recognises. B5: recognises. B6: recognises. B7: recognises. B8: recognises. B9: recognises. B10: recognises.

These binders were tested against HLA-A2/PRAME (425-433) on HLA-A2*01 HEK293T cells pulsed with PRAME 425-433 peptide (human) (assay: cell-based or functional assay).
B11 was tested, and the “EC50 (µM) of peptide, AP1 luciferase reporter in Jurkat cells expressing the TCR” value (“EC50 (µM) of peptide” below) was 0.126 µM. B12 was tested, and the “EC50 (µM) of peptide” value was 4.92 µM. For B13, the “EC50 (µM) of peptide” value was 0.94 µM. B14 was tested, and the “EC50 (µM) of peptide” value was 0.0479 µM. With B15 the “EC50 (µM) of peptide” value was 0.821 µM. With B16 the “EC50 (µM) of peptide” value was 0.911 µM. B17 was tested, and the “EC50 (µM) of peptide” value was 0.13 µM. With B18 the “EC50 (µM) of peptide” value was 0.0336 µM. With B19 the “EC50 (µM) of peptide” value was 0.261 µM.

From US20230060095A1 (Regeneron, published 2023)
